We go through 19 sequences from the NTF2 design screens of Basanta et al. (2020).

The nature of the series: protease stability score; higher = more stable; yeast display proteolysis, trypsin and chymotrypsin.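 Also: relative to predicted unfolded state with 0 unfolded-like and 1 meaning tenfold more protease.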
Sequence “DERQKELQEFAERLMRVLNTGDWEHTEQLLDPHVRVHFNGRDFHGWEEIVRFWTELRNQFDHFELRVDTVRIQGDKVENDGNAIFRIDGKELRHRITIHVFLINGKIKRVNVEIR” had a protease stability score of 1.68.
With “DERREIMEEWARDVIEWLETGDFEAIERNLDPNVRHDFNGKEFHGREQVIKSFHDILKRIKNIRIETRHIEVVDGVTHWDGDVNVNGVRTHVDINIEVINGVFHDFYIKFK” the figure was 1.19.
As for “DERREQTRHWINMFTHAMRTGDEHTFKELLDPHVRVKDEHEEDHGRDKAVELFSRVDVFHDIKLRDIDVQGNYVTIEVELLGEIDGKRTTHDLHIITYKINGRWILKSVSIR”, the figure is 1.06; as for “DERRKLEEDILELMLRVFETGDFDTFIKFADPNTRSDVNGRQYHGREWLAEMWKITLEELGADHFELTSYDVFNGRVHLRIRVHVGDKQRSMTIEIQVINGKVQSIRIDIE”, 1.4.
With “DERSEEVRRLIKNLVDFFHTGDWRLIQDLADPNVRTDVNGVEHHGREEVTKMLEELVRRFRNVRLHIRDHHIQGEWVIVILEFHVGDKSFELHMFALKINGRWTLTSIEVR”, the protease stability score was 2.37.
As for “DERSHVLEEVLKKTSRANETGNEEIIEENLDPNTRFDWNGVIIHGREQWLELVKHMRISIHHFDTRDIREFNGRADVRGDMDSVIEVDGRRLRLDTHVIYHATKVDGRWVITEIRIH”, the figure is 0.41; as for “DERSRNLEHYAKDLVEDWLTGDFRRYSKLADPNALTIFNGVELHGRELVIRMMNELRHRIDHLEIRIEDSHIQGNKVKIDSHRIMNVNGVEYRTKTEEWFDIVDGRVKSVEIRVH”, 0.426; as for “DERTEEVKRITEEFREAERTGDWERLLELIDPDVRIEIIINGRRETYHGREDAKRVLEEWYKQFKNITLKLREMRIQGDKTDLEVEVNVNGRRHDIRVHLHIVNGRIKEIRIEVI”, 1.63.
The sequence “DERTEFLERMSEHLTHVWHTGNEELWNRLADPRARFIEFVDGKKNHHHGMEVASNRIKKWRKDLGIDHVRLKEERVQGNKVELHLQVDINGVEQTVEIYNSIVDGRFESLEVNIHTR” yielded a protease stability score of 0.074.
With “DERTEHFREYREKVLESIETGDPRVIKEMLDPNAKVEIVIGEKNFDLHGREEVMRWYEEWVEKYKGMRIHINHVEVQGEKIIVDSELEVNGKSHKTDLIITAFNGVIKETRVEIN” the figure was 1.06; with “DERTEHNRQLAEEITRALLTGDWHEIEKQADPHVKFRQGEFSYVGREDLVRFWEEFIKKIKNITLRIREIRVIGDKVHIHNDLKIGDKETHVHIILVLIDGRLHHLEIRIE”, 1.45.
The sequence “DERTEHSEENVKLFIEALRTGDFKTLLRLVDPHVRVIVIINGKEINNHGWEEFLRWMREEFERYPNLRVKVRHLDIQGDFVRVEGHLEVGDKSHRIHLHLLIINGVVELELYIFR” returned a protease stability score of 1.92.
As for “DERTELTRNFFEEMVDTMITGNEHLEHRLADPNVRIYVGEKRIHGMERYIHQHHQWRFKDFKLKDIDTQGDKATIDGHLEGEVNGKDTRTDVEVHTLKFNGRWLIHTLRIR”, the protease stability score was found to be 1.1.
Take “DERTEVSEEFHRILIKVWRTGDETLSHQLADPHAKAEIGDKTIHGRDLWKEVFRRESERYDHYDSRLKDVKVQGDYINLDVHLILHVDGVPVRTDVIEIVLKFNGRWRLHSFHVK”: the protease stability score stood at 0.684.
As for “DERTEYFIREAREMLRDWVTGDWKRLHELMDPNARQDVNGVKNVGRDELSEFFEKFRERFDVYELRITEERHQGNKFIVKGDFHSNQGEFTFHHELEVHIVVVNGQFKRIEMRIR”, the figure is 1.55; as for “DERTHHLEQLYRRMYEHWETGDEKFHRELLDPHARVDINGQDVHGMHWIEEEMRMQREHIRIEHVIIKSIEIVDGKIHMNGIILGDINGRRVNVEVRFHVIIINGKARLVEVKIL”, 0.025; as for “DERTKEDEKWAKLFLEWHKTGNEEAFSHFADPHTRNTINGVELIGRESLMEFSKRWIEELRFKQLHIRDFKVVNGRVHIDSELHGIINGQEISTTVKIHIDIINGQTKSVEVRIL”, 1.17.
As to “DERTKQFNELLHIFIRDLHTGDEESHERMMDPNVRTEVGEFRMHGRENVRHWWHEWLRLLGLDRIEVRVRDHHVIDGRLRIDVELKQGDKNIDTHVILVVINGRMHSQRYEFH”, the protease stability score amounted to 0.717.
In turn, “DERTKSYELALRIIEHVNKTGDEEMSTHMADPNARVVQGEKEIHGRELFIRWMKEIRVEDIKHRDKTIIGDKLILRVDIHGIIDGRHEDFHVILIVTKVNGRWHLEEVRIH” displayed a protease stability score of 1.36.
